B1: Recombinant human Fc-tagged SEMA6B extracellular domain (Fc fusion)
chain: LFPEEPPPLSVAPRDYLNHYPVFVGSGPGRLTPAEGADDLNIQRVLRVNRTLFIGDRDNLYRVELEPPTSTELRYQRKLTWRSNPSDINVCRMKGKQEGECRNFVKVLLLRDESTLFVCGSNAFNPVCANYSIDTLQPVGDNISGMARCPYDPKHANVALFSDGMLFTATVTDFLAIDAVIYRSLGDRPTLRTVKHDSKWFKEPYFVHAVEWGSHVYFFFREIAMEFNYLEKVVVSRVARVCKNDVGGSPRVLEKQWTSFLKARLNCSVPGDSHFYFNVLQAVTGVVSLGGRPVVLAVFSTPSNSIPGSAVCAFDLTQVAAVFEGRFREQKSPESIWTPVPEDQVPRPRPGCCAAPGMQYNASSALPDDILNFVKTHPLMDEAVPSLGHAPWILRTLMRHQLTRVAVDVGAGPWGNQTVVFLGSEAGTVLKFLVRPNASTSGTSGLSVFLEEFETYRPDRCGRPGGGETGQRLLSLELDAASGGLLAAFPRCVVRVPVARCQQYSGCMKNCIGSQDPYCGWAPDGSCIFLSPGTRAAFEQDVSGASTSGLGDCTGLLRASLSEDRAGLVSVNLLVTSS
B3: Recombinant human Fc-tagged SEMA6A extracellular domain (Fc fusion)
chain: GFPEDSEPISISHGNYTKQYPVFVGHKPGRNTTQRHRLDIQMIMIMNGTLYIAARDHIYTVDIDTSHTEEIYCSKKLTWKSRQADVDTCRMKGKHKDECHNFIKVLLKKNDDALFVCGTNAFNPSCRNYKMDTLEPFGDEFSGMARCPYDAKHANVALFADGKLYSATVTDFLAIDAVIYRSLGESPTLRTVKHDSKWLKEPYFVQAVDYGDYIYFFFREIAVEYNTMGKVVFPRVAQVCKNDMGGSQRVLEKQWTSFLKARLNCSVPGDSHFYFNILQAVTDVIRINGRDVVLATFSTPYNSIPGSAVCAYDMLDIASVFTGRFKEQKSPDSTWTPVPDERVPKPRPGCCAGSSSLERYATSNEFPDDTLNFIKTHPLMDEAVPSIFNRPWFLRTMVRYRLTKIAVDTAAGPYQNHTVVFLGSEKGIILKFLARIGNSGFLNDSLFLEEMSVYNSEKCSYDGVEDKRIMGMQLDRASSSLYVAFSTCVIKVPLGRCERHGKCKKTCIASRDPYCGWIKEGGACSHLSPNSRLTFEQDIERGNTDGLGDCHNSFVALNGHSSSLLPSTTTSDSTAQEGYESRGGMLDWKHLLDSPDSTDPLGAVSSHNHQDKKGVIRESYLKGHDQLVPVT

Holding throughout (experiment): BLI
In general terms: In BLI a coated tip is dipped into the sample, and binding shifts an interference pattern.

Test [1] addresses TcsL (Paeniclostridium sordellii lethal toxin), recombinant His-tagged, full length (Paeniclostridium sordellii strain 6018, UniProt Q46342).
Test [2] concerns the target B3.
Test [3] deals with B1.

The text below walks through data of article PMC7228847 (Cell host & microbe, 2020).

As to B1, in test [1], the dissociation constant Kd was about 60 nM.

B2: TcsL_(1285-1804) (domain or fragment)
chain: TNVRINLDGNTRSFIVPVITTEQIRKNLSYSFYGSGGSYSLSLSPYNMNIDLNLVENDTWVIDVDNVVKNITIESDEIQKGELIENILSKLNIEDNKIILNNHTINFYGDINESNRFISLTFSILEDINIIIEIDLVSKSYKILLSGNCMKLIENSSDIQQKIDHIGFNGEHQKYIPYSYIDNETKYNGFIDYSKKEGLFTAEFSNESIIRNIYMPDSNNLFIYSSKDLKDIRIINKGDVKLLIGNYFKDDMKVSLSFTIEDTNTIKLNGVYLDENGVAQILKFMNNAKSALNTSNSLMNFLESINIKNIFYNNLDPNIEFILDTNFIISGSNSIGQFELICDKDKNIQPYFINFKIKETSYTLYVGNRQNLIVEPSYHLDDSGNISSTVINFSQKYLYGIDRYVNKVIIAPNLYTDEINITPVYKPNYICPEVIILDANYINEKINVNINDLSIRYVWDNDGSDLILIANSEEDNQPQVKIRFVNVFKSDTAADKLSFNFSDKQDVSVSKIISTFSLAA
As for B2, the binding result in test [2] and in test [3] was “binds” each time.
Consider B3, for which the dissociation constant Kd in test [1] was about 40 nM.

In general, Kd refers to a measure of binding affinity in units of concentration.
